Molecular target: E. coli RNAP core enzyme (E. coli, UniProt P0A7Z4;P0A8V2;P0A8T7;P0A800)
Assay: fluorescence polarisation

Chain of E. coli RNAP core enzyme (P0A7Z4 whole entry, chain 1 of 4): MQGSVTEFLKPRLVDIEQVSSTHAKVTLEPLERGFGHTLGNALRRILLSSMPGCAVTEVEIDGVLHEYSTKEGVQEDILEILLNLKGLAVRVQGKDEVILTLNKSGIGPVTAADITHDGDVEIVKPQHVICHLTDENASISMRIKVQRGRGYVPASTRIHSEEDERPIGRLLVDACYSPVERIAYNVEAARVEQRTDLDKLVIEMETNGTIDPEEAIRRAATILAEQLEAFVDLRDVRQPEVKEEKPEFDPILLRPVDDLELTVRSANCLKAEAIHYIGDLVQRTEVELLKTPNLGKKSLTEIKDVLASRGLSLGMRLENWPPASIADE
Chain of E. coli RNAP core enzyme (P0A8V2 whole entry, chain 2 of 4): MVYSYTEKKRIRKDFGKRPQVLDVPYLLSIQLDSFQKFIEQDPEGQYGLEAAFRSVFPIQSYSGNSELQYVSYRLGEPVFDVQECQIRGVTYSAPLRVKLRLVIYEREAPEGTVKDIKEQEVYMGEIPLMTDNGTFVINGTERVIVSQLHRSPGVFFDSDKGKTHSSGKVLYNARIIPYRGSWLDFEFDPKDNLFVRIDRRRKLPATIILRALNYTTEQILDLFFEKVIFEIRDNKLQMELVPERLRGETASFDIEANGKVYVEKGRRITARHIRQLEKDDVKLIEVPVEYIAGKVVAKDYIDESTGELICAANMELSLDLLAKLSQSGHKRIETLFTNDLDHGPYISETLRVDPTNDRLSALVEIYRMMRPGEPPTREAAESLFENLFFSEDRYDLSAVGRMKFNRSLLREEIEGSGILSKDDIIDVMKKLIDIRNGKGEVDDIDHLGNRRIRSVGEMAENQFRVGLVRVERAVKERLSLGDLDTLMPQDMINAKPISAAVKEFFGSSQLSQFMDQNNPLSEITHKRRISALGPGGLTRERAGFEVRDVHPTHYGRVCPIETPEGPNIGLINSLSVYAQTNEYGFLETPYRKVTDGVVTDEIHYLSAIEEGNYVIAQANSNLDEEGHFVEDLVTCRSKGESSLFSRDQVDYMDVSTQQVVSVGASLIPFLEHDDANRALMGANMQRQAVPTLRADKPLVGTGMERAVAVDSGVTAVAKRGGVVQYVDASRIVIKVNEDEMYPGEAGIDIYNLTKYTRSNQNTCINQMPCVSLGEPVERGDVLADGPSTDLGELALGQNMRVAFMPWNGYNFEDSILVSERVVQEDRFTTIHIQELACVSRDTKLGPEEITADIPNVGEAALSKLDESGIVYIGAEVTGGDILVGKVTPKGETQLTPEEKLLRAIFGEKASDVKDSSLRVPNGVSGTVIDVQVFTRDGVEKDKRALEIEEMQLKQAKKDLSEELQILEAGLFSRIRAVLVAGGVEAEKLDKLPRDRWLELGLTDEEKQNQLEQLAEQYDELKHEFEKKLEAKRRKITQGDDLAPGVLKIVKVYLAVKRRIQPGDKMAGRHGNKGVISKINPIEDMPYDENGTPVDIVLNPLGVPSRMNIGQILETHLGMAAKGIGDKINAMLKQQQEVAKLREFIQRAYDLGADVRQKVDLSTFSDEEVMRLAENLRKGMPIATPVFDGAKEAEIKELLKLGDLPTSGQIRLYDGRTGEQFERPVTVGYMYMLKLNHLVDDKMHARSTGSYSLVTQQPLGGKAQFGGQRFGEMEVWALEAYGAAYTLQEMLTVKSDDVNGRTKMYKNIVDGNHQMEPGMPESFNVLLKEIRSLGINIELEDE
Chain of E. coli RNAP core enzyme (P0A8T7 whole entry, chain 3 of 4): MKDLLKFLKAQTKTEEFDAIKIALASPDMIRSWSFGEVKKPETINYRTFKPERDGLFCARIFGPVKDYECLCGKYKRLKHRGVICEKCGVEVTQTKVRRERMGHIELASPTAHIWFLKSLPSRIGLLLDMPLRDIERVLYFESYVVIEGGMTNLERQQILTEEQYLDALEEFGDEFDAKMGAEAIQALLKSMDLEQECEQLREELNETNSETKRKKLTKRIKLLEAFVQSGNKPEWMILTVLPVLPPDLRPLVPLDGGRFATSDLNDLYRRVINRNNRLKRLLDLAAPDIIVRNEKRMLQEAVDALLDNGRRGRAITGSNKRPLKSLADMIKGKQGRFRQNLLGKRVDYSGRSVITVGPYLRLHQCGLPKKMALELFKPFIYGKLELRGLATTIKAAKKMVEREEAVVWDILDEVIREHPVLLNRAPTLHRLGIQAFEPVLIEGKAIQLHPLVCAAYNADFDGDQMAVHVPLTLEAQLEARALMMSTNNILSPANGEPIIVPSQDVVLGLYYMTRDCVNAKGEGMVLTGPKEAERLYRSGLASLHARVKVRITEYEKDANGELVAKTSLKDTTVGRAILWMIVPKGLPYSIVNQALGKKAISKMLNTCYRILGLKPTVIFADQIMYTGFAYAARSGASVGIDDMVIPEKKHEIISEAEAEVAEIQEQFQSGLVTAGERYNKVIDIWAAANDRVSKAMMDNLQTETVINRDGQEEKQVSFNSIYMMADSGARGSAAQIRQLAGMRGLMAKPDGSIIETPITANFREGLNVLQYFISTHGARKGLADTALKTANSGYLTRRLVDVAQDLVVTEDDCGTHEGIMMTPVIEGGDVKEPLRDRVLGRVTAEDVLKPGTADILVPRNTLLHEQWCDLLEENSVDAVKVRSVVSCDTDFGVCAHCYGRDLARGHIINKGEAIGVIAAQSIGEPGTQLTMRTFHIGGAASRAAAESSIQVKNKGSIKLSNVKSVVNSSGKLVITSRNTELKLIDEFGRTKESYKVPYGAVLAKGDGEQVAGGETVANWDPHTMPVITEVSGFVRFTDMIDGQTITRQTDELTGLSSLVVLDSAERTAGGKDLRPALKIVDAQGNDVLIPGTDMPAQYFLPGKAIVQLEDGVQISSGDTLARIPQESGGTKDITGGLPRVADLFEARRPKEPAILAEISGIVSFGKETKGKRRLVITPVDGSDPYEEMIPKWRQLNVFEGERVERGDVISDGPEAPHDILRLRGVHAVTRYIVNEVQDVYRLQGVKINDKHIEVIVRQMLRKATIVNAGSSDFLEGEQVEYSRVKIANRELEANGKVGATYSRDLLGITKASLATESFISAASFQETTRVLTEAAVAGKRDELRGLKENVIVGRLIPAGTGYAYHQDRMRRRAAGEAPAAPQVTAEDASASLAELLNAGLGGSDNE
Chain of E. coli RNAP core enzyme (P0A800 whole entry, chain 4 of 4): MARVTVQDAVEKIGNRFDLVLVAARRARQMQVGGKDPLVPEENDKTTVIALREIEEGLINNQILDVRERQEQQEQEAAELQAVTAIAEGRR

B1: fluorescein-labeled E. coli σ^E (natural protein)
chain: MSEQLTDQVLVERVQKGDQKAFNLLVVRYQHKVASLVSRYVPSGDVPDVVQEAFIKAYRALDSFRGDSAFYTWLYRIAVNTAKNYLVAQGRRPPSSDVDAIEAENFESGGALKEISNPENLMLSEELRQIVFRTIESLPEDLRMAITLRELDGLSYEEIAAIMDCPVGTVRSRIFRAREAIDNKVQPLIRR
modifications: fluorescein at residue C165
**Q.** How did the Kd turn out when B1 was run?
**A.** Its Kd is ~53 nM.

— PMC6648896 (Nucleic Acids Research, 2019)
